# Data: PMC9482650, “Quantitative fragmentomics allow affinity mapping of interactomes” (Nature Communications, 2022)
# What was measured:
# Assay in all cases: holdup assay
# Design in all cases: key: below the threshold = too weak to quantify, mostly under pKd 3.1 to 4
# Settings in all cases: plain residues with an end cap or a label only (N-terminal biotin on a linker: ttds)
# TX1BP3, O14907 = target: T1, TX1BP3, O14907
# T1 sequence (O14907 10-122, limits assumed, looked up): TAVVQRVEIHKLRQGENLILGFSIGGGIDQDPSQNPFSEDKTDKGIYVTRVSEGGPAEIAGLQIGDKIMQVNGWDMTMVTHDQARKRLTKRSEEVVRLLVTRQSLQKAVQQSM
# SYNJ2BP, P57105 = target: T2, SYNJ2BP, P57105
# T2 sequence (P57105 8-110, limits assumed, looked up): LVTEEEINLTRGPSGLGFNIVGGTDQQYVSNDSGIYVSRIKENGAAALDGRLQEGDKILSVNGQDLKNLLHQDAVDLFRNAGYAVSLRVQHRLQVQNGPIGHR
# NHERF2_2, Q15599 = target: NHERF2_2, Q15599
# Chain of NHERF2_2, Q15599 (Q15599 142-238): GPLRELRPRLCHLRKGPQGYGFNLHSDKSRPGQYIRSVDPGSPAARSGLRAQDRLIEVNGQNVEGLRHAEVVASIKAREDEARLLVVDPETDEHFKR
# ARHGAP21, Q5T5U3 = target: T3, ARHGAP21, Q5T5U3
# T3 sequence (Q5T5U3 45-169, limits assumed, looked up): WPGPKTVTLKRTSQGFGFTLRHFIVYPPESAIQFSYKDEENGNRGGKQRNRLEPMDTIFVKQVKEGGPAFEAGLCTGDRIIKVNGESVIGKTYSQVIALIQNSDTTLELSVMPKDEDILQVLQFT
# HTRA1, Q92743 = target: HTRA1, Q92743
# Chain of HTRA1, Q92743 (Q92743 360-477): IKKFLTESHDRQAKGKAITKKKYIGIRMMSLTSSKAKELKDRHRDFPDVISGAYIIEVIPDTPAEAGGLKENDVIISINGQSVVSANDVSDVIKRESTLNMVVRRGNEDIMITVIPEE
# DLG4_1, P78352 = target: DLG4_1, P78352
# Chain of DLG4_1, P78352 (P78352 62-152): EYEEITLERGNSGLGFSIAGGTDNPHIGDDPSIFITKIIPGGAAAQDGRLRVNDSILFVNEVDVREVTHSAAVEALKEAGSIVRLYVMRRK
# DLG4_2, P78352 = target: DLG4_2, P78352
# Chain of DLG4_2, P78352 (P78352 155-259): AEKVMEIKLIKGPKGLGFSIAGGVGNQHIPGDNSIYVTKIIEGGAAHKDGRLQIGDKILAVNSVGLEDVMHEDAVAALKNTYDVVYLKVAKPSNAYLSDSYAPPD
# APBA2_1, Q99767 = target: T4, APBA2_1, Q99767
# T4 sequence (Q99767 563-664, limits assumed, looked up): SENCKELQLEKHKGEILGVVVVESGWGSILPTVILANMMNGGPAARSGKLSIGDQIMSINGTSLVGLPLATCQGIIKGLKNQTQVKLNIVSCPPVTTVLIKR
# DLG3_2, Q92796 = target: T5, DLG3_2, Q92796
# T5 sequence (Q92796 221-321, limits assumed, looked up): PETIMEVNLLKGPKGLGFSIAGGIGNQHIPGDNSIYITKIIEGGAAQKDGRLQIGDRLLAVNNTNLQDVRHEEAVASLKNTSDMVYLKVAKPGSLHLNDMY
# GRIP2_6, Q9C0E4 = target: GRIP2_6, Q9C0E4
# Chain of GRIP2_6, Q9C0E4 (Q9C0E4 648-740): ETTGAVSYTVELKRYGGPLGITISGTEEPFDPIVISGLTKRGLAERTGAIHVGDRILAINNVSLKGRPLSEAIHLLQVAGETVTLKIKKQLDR
# LIN7A, O14910 = target: T6, LIN7A, O14910
# T6 sequence (O14910 103-200, limits assumed, looked up): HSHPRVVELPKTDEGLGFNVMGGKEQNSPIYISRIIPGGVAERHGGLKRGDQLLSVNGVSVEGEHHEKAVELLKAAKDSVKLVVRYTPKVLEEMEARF
# MAST1, Q9Y2H9 = target: MAST1, Q9Y2H9
# Chain of MAST1, Q9Y2H9 (Q9Y2H9 962-1065): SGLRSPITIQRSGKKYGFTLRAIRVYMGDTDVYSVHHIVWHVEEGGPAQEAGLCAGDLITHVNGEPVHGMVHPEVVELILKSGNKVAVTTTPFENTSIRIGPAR
# DLG2_2, Q15700 = target: DLG2_2, Q15700
# PARD3_3, Q8TEW0 = target: PARD3_3, Q8TEW0
# Chain of PARD3_3, Q8TEW0 (Q8TEW0 582-685): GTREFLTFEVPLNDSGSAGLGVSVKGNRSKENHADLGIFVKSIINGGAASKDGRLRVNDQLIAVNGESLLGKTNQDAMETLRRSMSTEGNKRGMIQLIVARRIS
# SNTG1, Q9NSN8 = target: T7, SNTG1, Q9NSN8
# T7 sequence (Q9NSN8 52-150, limits assumed, looked up): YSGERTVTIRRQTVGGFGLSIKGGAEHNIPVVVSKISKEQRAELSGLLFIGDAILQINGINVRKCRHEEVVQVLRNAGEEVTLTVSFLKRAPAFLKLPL
# RADIL, Q96JH8 = target: T8, RADIL, Q96JH8
# T8 sequence (Q96JH8 971-1071, limits assumed, looked up): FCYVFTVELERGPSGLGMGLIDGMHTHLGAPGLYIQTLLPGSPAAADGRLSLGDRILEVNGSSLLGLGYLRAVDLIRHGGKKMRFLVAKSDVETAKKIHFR
# LIMK2, P53671 = target: LIMK2, P53671
# Chain of LIMK2, P53671 (P53671 143-248): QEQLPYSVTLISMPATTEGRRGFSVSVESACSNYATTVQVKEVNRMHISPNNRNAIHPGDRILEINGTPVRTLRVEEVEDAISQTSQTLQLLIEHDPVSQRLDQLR
# PTPN3, P26045 = target: PTPN3, P26045
# Chain of PTPN3, P26045 (P26045 505-587): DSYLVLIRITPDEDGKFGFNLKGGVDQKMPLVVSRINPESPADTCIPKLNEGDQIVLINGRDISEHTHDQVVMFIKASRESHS
# SCRIB_1, Q14160 = target: SCRIB_1, Q14160
# Chain of SCRIB_1, Q14160 (Q14160 718-814): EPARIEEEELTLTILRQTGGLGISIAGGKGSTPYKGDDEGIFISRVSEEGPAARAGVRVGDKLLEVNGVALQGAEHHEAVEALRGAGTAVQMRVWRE
# ARHGEF11, O15085 = target: T9, ARHGEF11, O15085
# T9 sequence (O15085 42-136, limits assumed, looked up): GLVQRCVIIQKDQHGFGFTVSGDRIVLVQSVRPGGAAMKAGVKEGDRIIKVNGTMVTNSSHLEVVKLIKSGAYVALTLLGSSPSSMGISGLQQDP
# PDZRN4_1, Q6ZMN7 = target: PDZRN4_1, Q6ZMN7
# Chain of PDZRN4_1, Q6ZMN7 (Q6ZMN7 213-318): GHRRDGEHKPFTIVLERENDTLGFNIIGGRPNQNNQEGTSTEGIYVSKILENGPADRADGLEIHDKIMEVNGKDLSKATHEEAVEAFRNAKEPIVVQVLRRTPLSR
# RAPGEF6, Q8TEU7 = target: T10, RAPGEF6, Q8TEU7
# T10 sequence (Q8TEU7 525-625, limits assumed, looked up): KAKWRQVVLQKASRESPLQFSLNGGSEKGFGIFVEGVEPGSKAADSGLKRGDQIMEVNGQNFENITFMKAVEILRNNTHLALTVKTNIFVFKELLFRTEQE
# DLG2_3, Q15700 = target: DLG2_3, Q15700
# MAGI2_3, Q86UL8 = target: MAGI2_3, Q86UL8
# Chain of MAGI2_3, Q86UL8 (Q86UL8 600-682): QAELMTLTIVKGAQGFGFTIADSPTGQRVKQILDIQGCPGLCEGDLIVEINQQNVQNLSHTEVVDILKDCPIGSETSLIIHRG
# MAGI1_1, Q96QZ7 = target: MAGI1_1, Q96QZ7
# Chain of MAGI1_1, Q96QZ7 (Q96QZ7 1-106): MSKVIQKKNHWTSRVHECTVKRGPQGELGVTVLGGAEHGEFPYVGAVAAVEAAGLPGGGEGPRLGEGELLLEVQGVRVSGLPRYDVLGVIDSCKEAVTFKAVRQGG
# IL16_1, Q14005 = target: IL16_1, Q14005
# Chain of IL16_1, Q14005 (Q14005 210-306): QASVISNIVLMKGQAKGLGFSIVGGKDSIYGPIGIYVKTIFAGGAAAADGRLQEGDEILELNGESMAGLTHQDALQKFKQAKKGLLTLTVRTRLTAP
# GRIP2_3, Q9C0E4 = target: GRIP2_3, Q9C0E4
# Chain of GRIP2_3, Q9C0E4 (Q9C0E4 238-339): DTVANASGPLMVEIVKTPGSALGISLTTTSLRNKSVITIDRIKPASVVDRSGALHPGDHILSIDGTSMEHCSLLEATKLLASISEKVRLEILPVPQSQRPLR
binder,measurement,setting,value
"SRSRRRETAL [HPV33-E6, P06427]",pKd,"TX1BP3, O14907",5.07
same,pKd,"SYNJ2BP, P57105",5.3
same,pKd,"NHERF2_2, Q15599",3.97
same,pKd,"ARHGAP21, Q5T5U3",3.45
same,pKd,"HTRA1, Q92743",3.48
same,pKd,"DLG4_1, P78352",4.57
same,pKd,"DLG4_2, P78352",4.77
same,pKd,"APBA2_1, Q99767",below the threshold
same,pKd,"DLG3_2, Q92796",4.61
same,pKd,"GRIP2_6, Q9C0E4",below the threshold
same,pKd,"LIN7A, O14910",below the threshold
same,pKd,"MAST1, Q9Y2H9",4.78
same,pKd,"DLG2_2, Q15700",4.57
same,pKd,"PARD3_3, Q8TEW0",below the threshold
same,pKd,"SNTG1, Q9NSN8",3.62
same,pKd,"RADIL, Q96JH8",below the threshold
same,pKd,"LIMK2, P53671",below the threshold
same,pKd,"PTPN3, P26045",5.01
same,pKd,"SCRIB_1, Q14160",5.66
same,pKd,"ARHGEF11, O15085",4.25
same,pKd,"PDZRN4_1, Q6ZMN7",5.21
same,pKd,"RAPGEF6, Q8TEU7",below the threshold
same,pKd,"DLG2_3, Q15700",5.23
same,pKd,"MAGI2_3, Q86UL8",below the threshold
same,pKd,"MAGI1_1, Q96QZ7",below the threshold
same,pKd,"IL16_1, Q14005",below the threshold
same,pKd,"GRIP2_3, Q9C0E4",below the threshold
"FVETQHQTQV [FAT3, Q8TDW7]",pKd,"TX1BP3, O14907",4
same,pKd,"SYNJ2BP, P57105",4.08
same,pKd,"NHERF2_2, Q15599",below the threshold
same,pKd,"ARHGAP21, Q5T5U3",below the threshold
same,pKd,"HTRA1, Q92743",below the threshold
same,pKd,"DLG4_1, P78352",4.36
same,pKd,"DLG4_2, P78352",4.57
same,pKd,"APBA2_1, Q99767",below the threshold
same,pKd,"DLG3_2, Q92796",4.71
same,pKd,"GRIP2_6, Q9C0E4",below the threshold
same,pKd,"LIN7A, O14910",below the threshold
same,pKd,"MAST1, Q9Y2H9",4.8
same,pKd,"DLG2_2, Q15700",4.5
same,pKd,"PARD3_3, Q8TEW0",below the threshold
same,pKd,"SNTG1, Q9NSN8",4.02
same,pKd,"RADIL, Q96JH8",4.27
same,pKd,"LIMK2, P53671",below the threshold
same,pKd,"PTPN3, P26045",4.12
same,pKd,"SCRIB_1, Q14160",below the threshold
same,pKd,"ARHGEF11, O15085",4.22
same,pKd,"PDZRN4_1, Q6ZMN7",below the threshold
same,pKd,"RAPGEF6, Q8TEU7",below the threshold
same,pKd,"DLG2_3, Q15700",3.59
same,pKd,"MAGI2_3, Q86UL8",3.63
same,pKd,"MAGI1_1, Q96QZ7",below the threshold
same,pKd,"IL16_1, Q14005",below the threshold
same,pKd,"GRIP2_3, Q9C0E4",below the threshold
